The experiment has as its target sDMA-containing peptide (Bio-…[sDMA]G[sDMA]G[sDMA]G[sDMA]KPN). Nature of the experiment: SPR. (In general: Surface plasmon resonance follows binding to a sensor surface in real time, without labels.)

pKd: −log10 of the molar value.

Consider “His-tagged N-terminal deleted BmPAPI (ΔN-BmPAPI: amino acids 48–629) (domain or fragment)”, for which the pKd (commonly the negative decadic logarithm of the Kd, by convention in mol/L) was 4.57.

These data come from publication PMC3854531.
